Source: patent publication US20220024983A1, “BICYCLIC PEPTIDE LIGANDS SPECIFIC FOR IL-17” (BicycleRD Limited, priority 2018, published 2022)
*1 amine or outer side, *2 acyl side, *3 side chain or, on linkers, in order; H or OH if unused. Bridges are numbered along the chain shown (N, C = ends). Where no end group is shown, it is not given here. TBMB = c1c(C[*:1])cc(C[*:3])cc1C[*:2]

Key:
human IL-17A dimer [1] = target: T1, human IL-17A dimer (human, UniProt Q16552 24-155); assay: FP competition, competitor: tracer BCY2311
T1 construct: also called hIL17-A
T1 sequence (looked up): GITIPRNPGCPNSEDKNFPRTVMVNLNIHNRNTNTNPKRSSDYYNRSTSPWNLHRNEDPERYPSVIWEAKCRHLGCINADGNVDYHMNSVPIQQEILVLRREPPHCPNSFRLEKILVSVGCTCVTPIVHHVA
Protocol: (§1) Affinity determination by fluorescence polarization (FP) competition. […] Peptides were diluted to an appropriate concentration in assay buffer (PBS+0.01% Tween20, adjusted to pH7.4 using NaOH (1M)) with a maximum of 1% DMSO, then serially diluted 1 in 2 into assay buffer. […] The PHERAstar FS was set at 25° C. with 200 flashes per well and a positioning delay of 0.1 second, with each well measured at 5 to 10 minute intervals for 60 minutes. […] Data analysis was performed in Dotmatics where mP values were fit to the Cheng Prusoff equation in order to generate a Ki value.

human IL-17A dimer [2] = target: T1, human IL-17A dimer; assay: FP competition, competitor: tracer BCY2311; Ki Mean column, n=6
Protocol: as §1

human IL-17A dimer [3] = target: T1, human IL-17A dimer; assay: FP competition, competitor: tracer BCY2315
Protocol: as §1

human IL-17A dimer [4] = target: T1, human IL-17A dimer; assay: FP competition, competitor: tracer BCY2315; Ki Mean column, n=2
Protocol: as §1

human IL-17A dimer [5] = target: T1, human IL-17A dimer; assay: binding assay, method analogous to WO 2011/141823; Mean column, n=2
human IL-17A dimer [6] = target: T1, human IL-17A dimer; assay: binding assay, method analogous to WO 2011/141823
mouse IL-17A dimer = target: T2, mouse IL-17A dimer (mouse, UniProt Q62386 26-158); assay: binding assay, method analogous to WO 2011/141823
T2 sequence (looked up): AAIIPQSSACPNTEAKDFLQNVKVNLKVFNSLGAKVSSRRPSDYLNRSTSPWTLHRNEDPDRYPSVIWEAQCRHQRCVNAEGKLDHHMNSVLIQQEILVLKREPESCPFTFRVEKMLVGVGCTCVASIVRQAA

human IL-17A dimer [7] = target: T1, human IL-17A dimer; assay: binding assay, method analogous to WO 2011/141823; remark: listed apart in the source
human IL-17E = target: T3, human IL-17E (human, UniProt Q9H293 33-177); assay: binding assay, method analogous to WO 2011/141823; column head prints hIL17-F, read as IL-17E by paragraph 30
T3 construct: also called hIL17-E; IL-25
T3 sequence (looked up): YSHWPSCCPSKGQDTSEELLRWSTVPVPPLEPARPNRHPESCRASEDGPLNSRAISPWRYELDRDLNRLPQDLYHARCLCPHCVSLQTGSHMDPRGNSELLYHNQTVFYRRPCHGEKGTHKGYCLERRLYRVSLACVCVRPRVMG

B1: BCY2240 [Ac-(SEQ ID NO: 36)] (peptide)
peptide: Ac-CYEAELCAFLGLC
modifications: linker 1-7-13 via TBMB
notes: Bicyclic peptide
- Ki (human IL-17A dimer [1]): 26.9 nM
- Ki (human IL-17A dimer [2]): 25.7 nM

B2: BCY2249 (peptide)
peptide: CYEDELCEFLALC
modifications: linker 1-7-13 via TBMB
notes: Bicyclic peptide
- Ki (human IL-17A dimer [3]): 65 nM
- Ki (human IL-17A dimer [4]): 65 nM

B3: BCY2310 (peptide)
peptide: ACPQDLELCTFLFGDCAXXXXXXK
modifications: Ci, Cii and Ciii cyclised with TBMB; six sarcosines (written X) after the C-terminal Ala; fluorescein (Fl) on the C-terminal Lys
- Kd (human IL-17A dimer [5]): 26.6 nM
- Kd (human IL-17A dimer [6]): 26.6 nM
- Kd (mouse IL-17A dimer): 110 nM

B4: BCY2232 (peptide)
peptide: CPENELYCFLSSQQC
modifications: linker 1-8-15 via TBMB
notes: Bicyclic peptide
- Kd (human IL-17A dimer [7]): 398 nM

B5: BCY2240 [A-(SEQ ID NO: 56)-A] (peptide)
peptide: ACGYDYYCALYDICA
modifications: linker 2-8-14 via TBMB
notes: Bicyclic peptide
- Kd (human IL-17E): 198 nM
